Test results taken from patent publication CN111378628A (UNIV YANGZHOU, dated 2020).

Columns and labels:
H37Rv中ESAT6抗原 = molecular target: T1, H37Rv中ESAT6抗原 (Mycobacterium tuberculosis H37Rv, UniProt P9WNK7 2-95); experiment: Western blotting
T1 construct: also called H37Rv中的ESAT6抗原

重组ESAT6蛋白 = 重组ESAT6蛋白 (Mycobacterium tuberculosis, UniProt P9WNK7 1-95); experiment: Western blotting
Chain of 重组ESAT6蛋白 (P9WNK7 whole entry): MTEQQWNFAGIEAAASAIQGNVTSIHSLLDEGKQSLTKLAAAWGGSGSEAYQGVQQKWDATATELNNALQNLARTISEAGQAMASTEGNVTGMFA

T1 sequence (P9WNK7 2-95 limits assumed): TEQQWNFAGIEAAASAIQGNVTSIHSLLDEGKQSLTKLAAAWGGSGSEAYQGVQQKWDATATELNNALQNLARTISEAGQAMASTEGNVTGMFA

B1: 单克隆抗体MAb 8G4 (抗ESAT6单克隆抗体, 杂交瘤细胞株8G4, CCTCC NO:C2019287) (antibody, V domains shown)
VH: QIQLVQSGPELKRPGETVKISCKASGYTFTNYGMNWVKQAPGKGLKWMGWINTYNGVPTYTDDFKGRFAFSLETSARTAYLQIKNLKNEDMATYFCAIGGNIPPAYWGQGTLVTVSA
VL: NIMMTQSPSSLAVSAREKVTMICKSSHSVLKSSNQKNYLAWYQQKPGQSPKLLIYWASTRNSGVPDRFTGSGSGTNFTLTITSVQTEDLAVYYCHQYLSSLTFGGGTKLELK
notes: also called 单克隆抗体8G4; ESAT6单克隆抗体8G4
H37Rv中ESAT6抗原
  binding result: binds
重组ESAT6蛋白
  binding result: binds
